Assay results: publication PMC2730839

Substrate: O=C(O)C(=O)c1ccccc1
Assay: steady-state kinetics
Type: biochemical, Pseudomonas putida
Conditions: thiamin diphosphate (ThDP), Mg2+ active site

B1: benzoylformate decarboxylase (BFDC) (Pseudomonas putida) (protein)
chain: MASVHGTTYELLRRQGIDTVFGNPGSNELPFLKDFPEDFRYILALQEACVVGIADGYAQASRKPAFINLHSAAGTGNAMGALSNAWNSHSPLIVTAGQQTRAMIGVEALLTNVDAANLPRPLVKWSYEPASAAEVPHAMSRAIHMASMAPQGPVYLSVPYDDWDKDADPQSHHLFDRHVSSSVRLNDQDLDILVKALNSASNPAIVLGPDVDAANANADCVMLAERLKAPVWVAPSAPRCPFPTRHPCFRGLMPAGIAAISQLLEGHDVVLVIGAPVFRYHQYDPGQYLKPGTRLISVTCDPLEAARAPMGDAIVADIGAMASALANLVEESSRQLPTAAPEPAKVDQDAGRLHPETVFDTLNDMAPENAIYLNESTSTTAQMWQRLNMRNPGSYYFCAAGGLGFALPAAIGVQLAEPERQVIAVIGDGSANYSISALWTAAQYNIPTIFVIMNNGTYGALRWFAGVLEAENVPGLDVPGIDFRALAKGYGVQALKADNLEQLKGSLQEALSAKGPVLIEVSTVSPVK
Q: Which Km does the source give for B1 here?
A: 760 ± 90 µM
